Source: patent US20210063414A1, “METHODS FOR PREVENTING AND/OR TREATING BONE LOSS CONDITIONS BY MODULATING IRISIN” (Dana-Farber Cancer Institute, Inc., priority 2018, published 2021)

Biological target: T1, MLO-Y4 cell surface proteins (Mus musculus, UniProt Q9CXD6)
T1 construct: endogenous in cells; host or cells: MLO-Y4
T1 sequence (Q9CXD6 1-340): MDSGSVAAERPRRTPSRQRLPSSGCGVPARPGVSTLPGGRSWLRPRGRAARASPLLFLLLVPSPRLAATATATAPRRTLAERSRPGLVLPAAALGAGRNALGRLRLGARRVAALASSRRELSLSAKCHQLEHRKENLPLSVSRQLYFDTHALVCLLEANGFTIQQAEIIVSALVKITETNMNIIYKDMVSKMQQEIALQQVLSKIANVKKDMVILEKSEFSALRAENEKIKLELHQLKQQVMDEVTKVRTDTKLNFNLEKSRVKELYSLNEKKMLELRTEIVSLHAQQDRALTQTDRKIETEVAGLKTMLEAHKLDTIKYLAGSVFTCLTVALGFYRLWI
Experiment: Crosslinking/co-immunoprecipitation/mass spectrometry (TMT quantitative proteomics) to identify irisin receptors
Format: binding
Conditions: co-precipitated protein Mcur1 (MCUR1_MOUSE)
Method in brief: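 Mouse MLO-Y4 cells were switched to serum-free FreeStyle medium for 4 h, chilled, then exposed to 10 nM His-tagged irisin (or adipsin as control) for 20 min. Cells were crosslinked with 1.5 mM DTSSP (30 min, ice), and bound proteins were pulled down on Ni-NTA and eluted with 250 mM imidazole. Eluates were separated by SDS-PAGE, trypsin-digested in gel, TMT 6-plex labelled and quantified by MS3-based LC-MS/MS on an Orbitrap Fusion Lumos.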

Substance adipsin has a TMT signal-to-noise ratio of 1631.69.
